From article PMC9279153, “Structure of the Dicer-2–R2D2 heterodimer bound to a small RNA duplex” come the findings set out here.

Data set [1] addresses T1, Dicer-2;R2D2 (Drosophila;Drosophila, UniProt A1ZAW0;Q9VLW8 1-1722;1-311, |). Kind of data set: photocrosslinking; crosslinks to R2D2, similar to 2-nt overhang; Crosslinking: 20 nM siRNA, 40 nM Dicer-2-R2D2, 30 min, >300 nm UV 60 s, buffer not given; structure: 30 mM Hepes-KOH pH 7.4, 100 mM potassium acetate, 2 mM magnesium acetate, 1 mM DTT, 0.02% glycerol, protein:siRNA 1:2 mixed at room temperature. To be noted: protein: recombinant;recombinant; tags: 8xHis (structure prep);3xFlag; copies: 1;1; U-U mismatch at nt 1 of strand 1.

For data set [2], the target named is T1, Dicer-2;R2D2. Kind of data set: photocrosslinking; g* crosslinks to R2D2; Crosslinking: 20 nM siRNA, 40 nM Dicer-2-R2D2, 30 min, >300 nm UV 60 s, buffer not given; structure: 30 mM Hepes-KOH pH 7.4, 100 mM potassium acetate, 2 mM magnesium acetate, 1 mM DTT, 0.02% glycerol, protein:siRNA 1:2 mixed at room temperature. To be noted: protein: recombinant;recombinant; tags: 8xHis (structure prep);3xFlag; copies: 1;1; 3' overhang 2 nt on both strands.

The target in a further data set is Dicer-2;R2D2 K98A (Drosophila;Drosophila, UniProt A1ZAW0;Q9VLW8 1-1722;1-311, |K98A). The experiment in a line: photocrosslinking; g* crosslinking not affected by K98A; Crosslinking: 20 nM siRNA, 40 nM Dicer-2-R2D2, 30 min, >300 nm UV 60 s, buffer not given; structure: 30 mM Hepes-KOH pH 7.4, 100 mM potassium acetate, 2 mM magnesium acetate, 1 mM DTT, 0.02% glycerol, protein:siRNA 1:2 mixed at room temperature. To be noted: protein: recombinant;recombinant; tags: 8xHis (structure prep);3xFlag; copies: 1;1; 3' overhang 2 nt on both strands.

The target in a further data set is Dicer-2;R2D2 CTD Δα2 (Drosophila;Drosophila, UniProt A1ZAW0;Q9VLW8 1-1722;1-201+=GGGS+215-311, |internal_change). Kind of data set: photocrosslinking; g* crosslink to R2D2 abolished, g* crosslink to Dicer-2 increased (opposite orientation); Crosslinking: 20 nM siRNA, 40 nM Dicer-2-R2D2, 30 min, >300 nm UV 60 s, buffer not given; structure: 30 mM Hepes-KOH pH 7.4, 100 mM potassium acetate, 2 mM magnesium acetate, 1 mM DTT, 0.02% glycerol, protein:siRNA 1:2 mixed at room temperature. To be noted: protein: recombinant;recombinant; tags: 8xHis (structure prep);3xFlag; copies: 1;1; 3' overhang 2 nt on both strands.

The target in data set [3] is T1, Dicer-2;R2D2. The experiment in a line: photocrosslinking; crosslinks to R2D2; Crosslinking: 20 nM siRNA, 40 nM Dicer-2-R2D2, 30 min, >300 nm UV 60 s, buffer not given; structure: 30 mM Hepes-KOH pH 7.4, 100 mM potassium acetate, 2 mM magnesium acetate, 1 mM DTT, 0.02% glycerol, protein:siRNA 1:2 mixed at room temperature. To be noted: protein: recombinant;recombinant; tags: 8xHis (structure prep);3xFlag; copies: 1;1; 3' overhang 2 nt on strand 2; U-U mismatch at nt 1 of strand 1.

Data set [4] deals with T1, Dicer-2;R2D2. Kind of data set: cryo-EM; two duplexes: one on R2D2 (well resolved), one on Dicer-2 helicase (poorly resolved); Crosslinking: 20 nM siRNA, 40 nM Dicer-2-R2D2, 30 min, >300 nm UV 60 s, buffer not given; structure: 30 mM Hepes-KOH pH 7.4, 100 mM potassium acetate, 2 mM magnesium acetate, 1 mM DTT, 0.02% glycerol, protein:siRNA 1:2 mixed at room temperature. To be noted: protein: recombinant;recombinant; tags: 8xHis (structure prep);3xFlag; copies: 1;1; 19-nt duplex region with U-U mismatch at g1:p19; 3' overhang 2 nt on both strands.

T1 sequence (A1ZAW0 whole entry, chain 1 of 2): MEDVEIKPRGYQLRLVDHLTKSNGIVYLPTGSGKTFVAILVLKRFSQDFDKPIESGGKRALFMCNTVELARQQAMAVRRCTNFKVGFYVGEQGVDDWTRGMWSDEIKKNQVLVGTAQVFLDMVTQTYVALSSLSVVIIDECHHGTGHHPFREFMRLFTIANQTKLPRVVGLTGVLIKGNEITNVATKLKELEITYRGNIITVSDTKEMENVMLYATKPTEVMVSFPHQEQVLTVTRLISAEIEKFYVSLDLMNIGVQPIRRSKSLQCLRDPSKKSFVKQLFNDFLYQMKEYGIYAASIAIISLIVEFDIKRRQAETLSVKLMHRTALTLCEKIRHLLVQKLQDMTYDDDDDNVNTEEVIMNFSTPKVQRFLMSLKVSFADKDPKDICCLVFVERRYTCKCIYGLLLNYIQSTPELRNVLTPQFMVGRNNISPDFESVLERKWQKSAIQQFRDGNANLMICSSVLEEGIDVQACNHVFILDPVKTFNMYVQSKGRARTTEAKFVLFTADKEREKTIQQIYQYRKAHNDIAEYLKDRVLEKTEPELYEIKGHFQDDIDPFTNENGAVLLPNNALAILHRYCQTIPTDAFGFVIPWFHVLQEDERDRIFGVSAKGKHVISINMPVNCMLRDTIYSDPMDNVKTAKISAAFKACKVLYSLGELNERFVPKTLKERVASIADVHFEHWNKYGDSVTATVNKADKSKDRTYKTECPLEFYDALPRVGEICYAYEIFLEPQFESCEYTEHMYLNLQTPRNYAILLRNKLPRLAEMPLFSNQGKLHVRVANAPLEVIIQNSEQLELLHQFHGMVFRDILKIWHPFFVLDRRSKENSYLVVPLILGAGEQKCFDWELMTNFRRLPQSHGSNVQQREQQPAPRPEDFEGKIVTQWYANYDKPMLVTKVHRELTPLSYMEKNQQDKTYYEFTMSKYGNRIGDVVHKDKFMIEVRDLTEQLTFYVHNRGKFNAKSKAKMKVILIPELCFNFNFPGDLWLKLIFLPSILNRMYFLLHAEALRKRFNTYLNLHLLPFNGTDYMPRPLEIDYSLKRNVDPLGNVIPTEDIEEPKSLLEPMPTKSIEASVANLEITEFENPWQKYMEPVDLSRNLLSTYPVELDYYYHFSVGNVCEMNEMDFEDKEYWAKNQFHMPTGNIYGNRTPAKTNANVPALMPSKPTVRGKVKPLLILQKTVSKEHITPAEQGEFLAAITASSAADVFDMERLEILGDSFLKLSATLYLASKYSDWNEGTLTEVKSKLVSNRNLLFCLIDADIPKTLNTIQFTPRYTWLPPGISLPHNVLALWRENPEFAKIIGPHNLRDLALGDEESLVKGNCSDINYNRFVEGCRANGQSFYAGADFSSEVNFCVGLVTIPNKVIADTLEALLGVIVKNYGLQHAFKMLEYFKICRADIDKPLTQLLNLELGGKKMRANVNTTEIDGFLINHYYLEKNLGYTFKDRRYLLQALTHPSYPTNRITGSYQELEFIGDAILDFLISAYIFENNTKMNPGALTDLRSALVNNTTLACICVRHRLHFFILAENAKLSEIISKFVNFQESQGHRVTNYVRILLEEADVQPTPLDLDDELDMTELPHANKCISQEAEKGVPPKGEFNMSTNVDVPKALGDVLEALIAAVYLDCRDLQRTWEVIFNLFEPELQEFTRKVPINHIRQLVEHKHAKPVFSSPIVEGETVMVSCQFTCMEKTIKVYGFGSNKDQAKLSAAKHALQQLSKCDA
T1 sequence (chain, as listed by the source |, chain 2 of 2): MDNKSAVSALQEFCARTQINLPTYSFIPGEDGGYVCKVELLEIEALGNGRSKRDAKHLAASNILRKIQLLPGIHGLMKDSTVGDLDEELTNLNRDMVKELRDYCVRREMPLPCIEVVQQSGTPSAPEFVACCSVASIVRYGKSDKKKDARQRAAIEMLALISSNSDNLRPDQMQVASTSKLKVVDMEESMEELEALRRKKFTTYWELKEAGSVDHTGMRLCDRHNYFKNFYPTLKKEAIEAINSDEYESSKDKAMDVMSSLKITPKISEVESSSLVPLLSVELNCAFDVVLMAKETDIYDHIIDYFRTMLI
Dicer-2;R2D2 K98A, sequence (A1ZAW0 whole entry, chain 1 of 2): as the sequence (A1ZAW0 whole entry, chain 1 of 2) above
Dicer-2;R2D2 K98A, sequence (chain, as listed by the source |K98A | K98A K98A, chain 2 of 2): as the sequence (chain, as listed by the source |, chain 2 of 2) above, with K98A counted along it
Dicer-2;R2D2 CTD Δα2, sequence (A1ZAW0 whole entry, stated change not applied, chain 1 of 2): as the sequence (A1ZAW0 whole entry, chain 1 of 2) above
Dicer-2;R2D2 CTD Δα2, sequence (chain, as listed by the source | | mutant, chain 2 of 2): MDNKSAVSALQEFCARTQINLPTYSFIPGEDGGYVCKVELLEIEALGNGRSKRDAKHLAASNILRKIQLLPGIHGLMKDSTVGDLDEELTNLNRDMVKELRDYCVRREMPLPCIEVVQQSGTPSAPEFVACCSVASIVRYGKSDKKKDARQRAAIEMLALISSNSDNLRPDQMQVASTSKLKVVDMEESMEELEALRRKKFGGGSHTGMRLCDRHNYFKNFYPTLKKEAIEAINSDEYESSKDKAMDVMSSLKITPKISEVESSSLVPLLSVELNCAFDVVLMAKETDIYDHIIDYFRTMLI

B1: g* siRNA, 1-nt overhang (siRNA-4/siRNA-2) (dsRNA)
RNA 1: UGAGGUAGUAGGUUGUAUAU
RNA 2: UAUACAACCUACUACCUCUUU
modifications: 5-iodouracil at position 20 of strand 1 (written as U)
B1: in the data set with Dicer-2;R2D2 [1], the binding result was “binds”.

B2: g* siRNA, 2-nt overhang (siRNA-1/siRNA-2) (dsRNA)
RNA 1: UGAGGUAGUAGGUUGUAUAUU
RNA 2: UAUACAACCUACUACCUCUUU
modifications: 5-iodouracil at position 20 of strand 1 (written as U)
Turning to B2, the binding result with Dicer-2;R2D2 [2], with Dicer-2;R2D2 K98A and in the data set with Dicer-2;R2D2 CTD Δα2 was “binds” in each case.

B3: g* siRNA, blunt stable end (siRNA-4/siRNA-5) (dsRNA)
RNA 1: UGAGGUAGUAGGUUGUAUAU
RNA 2: AUAUACAACCUACUACCUCUUU
modifications: 5-iodouracil at position 20 of strand 1 (written as U)
With B3, the binding result with Dicer-2;R2D2 [3] is on record as “binds”.

B4: let-7 siRNA duplex (guide/passenger) (dsRNA)
RNA 1: UGAGGUAGUAGGUUGUAUAGU
RNA 2: UAUACAACCUACUACCUCUCU
modifications: 5'-phosphate (passenger p1)
Regarding B4, in the data set with Dicer-2;R2D2 [4], the binding result is recorded as “binds”.
